Measured values reported in publication PMC4837482, “The complex binding mode of the peptide hormone H2 relaxin to its receptor RXFP1” (Nature Communications, 2016).
Substitutions are numbered along the chain they refer to.

Experiments:
Test in all cases: cAMP activity assay (pCRE β-galactosidase reporter), transfected HEK293T cells
Assay type in all cases: cell-based
RXFP1 G45A = target: T1, RXFP1 G45A (Homo sapiens, UniProt Q9HBX9, G67A); conditions: construct G45A, ±s.e.m.
T1 construct: transiently transfected human embryonic kidney (HEK) 293T cells expressing full-length RXFP1 and mutants; expressed in transfected cells; host or cells: HEK293T
T1 sequence (Q9HBX9 23-757 G67A limits assumed): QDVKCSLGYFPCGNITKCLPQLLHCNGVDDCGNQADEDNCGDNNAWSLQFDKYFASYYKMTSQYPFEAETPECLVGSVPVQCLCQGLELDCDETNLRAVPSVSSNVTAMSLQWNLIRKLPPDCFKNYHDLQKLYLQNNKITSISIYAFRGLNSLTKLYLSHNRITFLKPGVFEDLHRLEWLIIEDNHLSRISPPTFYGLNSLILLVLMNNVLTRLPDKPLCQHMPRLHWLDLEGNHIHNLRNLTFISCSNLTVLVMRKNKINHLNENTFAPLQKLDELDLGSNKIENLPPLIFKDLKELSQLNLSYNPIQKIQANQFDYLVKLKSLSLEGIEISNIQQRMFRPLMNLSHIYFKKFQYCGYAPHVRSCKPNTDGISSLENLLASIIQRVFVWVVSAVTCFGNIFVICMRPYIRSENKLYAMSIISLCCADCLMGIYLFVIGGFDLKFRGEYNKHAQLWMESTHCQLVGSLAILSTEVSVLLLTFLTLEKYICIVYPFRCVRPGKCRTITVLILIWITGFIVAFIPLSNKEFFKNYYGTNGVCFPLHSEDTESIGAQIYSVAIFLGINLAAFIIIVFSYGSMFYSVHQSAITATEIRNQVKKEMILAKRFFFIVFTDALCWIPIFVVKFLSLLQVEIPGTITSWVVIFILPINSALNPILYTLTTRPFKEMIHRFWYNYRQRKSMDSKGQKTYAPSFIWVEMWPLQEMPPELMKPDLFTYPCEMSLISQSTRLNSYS
Procedure: (§1) Media was aspirated and plates stored frozen at −80 °C overnight. […] H2 relaxin dilutions were prepared in minimal media containing 1% DMSO. Positive and negative control stimulations were achieved by incubation with 5 μM Forskolin and minimal media/1% DMSO, respectively. Plates were developed by 10 min of incubation in 25 μl of lysis buffer 1 (100 mM Na2HPO4, pH 8.0, 0.2 mM MgSO4 0.01 mM MnCl2); a further 10 min of incubation in 100 μl of buffer 2 (100 mM Na2HPO4, pH 8.0, 2 mM MgSO4, 0.1 mM MnCl2, 0.5% Triton X-100, 40 mM β-mercaptoethanol); then to each well 25 μl of the β-galactosidase substrate, chlorophenol red-β-D-galactopyranoside (Roche) was added. All incubation steps were conducted with orbital shaking. Color-change was monitored and readings were taken on a Benchmark Plus Microplate Reader (Bio-Rad) at 570 nm. A minimum of three separate experiments were performed, each of them in triplicate, and data were pooled and presented as percentages of the maximum response induced by 5 μM Forskolin±s.e.m.

RXFP1 T61A = target: T2, RXFP1 T61A (Homo sapiens, UniProt Q9HBX9, T83A); conditions: construct T61A, ±s.e.m.
T2 construct: cells expressing full-length RXFP1 and mutants; expressed in transfected cells; host or cells: HEK293T
T2 sequence (Q9HBX9 23-757 T83A limits assumed): T1 sequence (Q9HBX9 23-757 G67A limits assumed) with A45G, T61A
Procedure: as §1

RXFP1 A55S = target: T3, RXFP1 A55S (Homo sapiens, UniProt Q9HBX9, A77S); conditions: construct A55S, ±s.e.m.
T3 construct: cells expressing full-length RXFP1 and mutants; expressed in transfected cells; host or cells: HEK293T
T3 sequence (Q9HBX9 23-757 A77S limits assumed): T1 sequence (Q9HBX9 23-757 G67A limits assumed) with A45G, A55S
Procedure: as §1

[1] = percentage of maximum response to 5 μM Forskolin

## H2 relaxin: two-chain 6-kDa peptide hormone structurally related to insulin; recombinant human gene-2 H2 relaxin provided by Corthera
RXFP1 G45A; cAMP reporter
  H2 relaxin pEC50: 7.48±0.57 (4)
RXFP1 G45A; [1]
  H2 relaxin Emax: 135.94±31.68 (4) %
RXFP1 T61A; cAMP reporter
  H2 relaxin pEC50: 11.15±0.17 (5)
RXFP1 T61A; [1]
  H2 relaxin Emax: 142.58±15.97 (4) %
RXFP1 A55S; cAMP reporter
  H2 relaxin pEC50: 11.39±0.13 (5)
RXFP1 A55S; [1]
  H2 relaxin Emax: 154.43±39.77 (5) %
